{"source": "paper PMC5571939", "about": "“The nature of the Syntaxin4 C-terminus affects Munc18c-supported SNARE assembly” (PLoS ONE, 2017)", "conditions_in_all_cases": "both partners purified", "key": {"HL-Munc18c": {"target": "T1, HL-Munc18c (mouse, UniProt Q60770 1-592)", "T1 construct": "Munc18c (Munc18-3), mouse; The linker is said to have 53 amino acids; also called Munc18c with N-terminal His6-tag and long linker; source: E. coli, purified as described previously [39]; not shown: His6 with long linker ([residues removed]), N-terminal, kept", "T1 sequence (looked up)": "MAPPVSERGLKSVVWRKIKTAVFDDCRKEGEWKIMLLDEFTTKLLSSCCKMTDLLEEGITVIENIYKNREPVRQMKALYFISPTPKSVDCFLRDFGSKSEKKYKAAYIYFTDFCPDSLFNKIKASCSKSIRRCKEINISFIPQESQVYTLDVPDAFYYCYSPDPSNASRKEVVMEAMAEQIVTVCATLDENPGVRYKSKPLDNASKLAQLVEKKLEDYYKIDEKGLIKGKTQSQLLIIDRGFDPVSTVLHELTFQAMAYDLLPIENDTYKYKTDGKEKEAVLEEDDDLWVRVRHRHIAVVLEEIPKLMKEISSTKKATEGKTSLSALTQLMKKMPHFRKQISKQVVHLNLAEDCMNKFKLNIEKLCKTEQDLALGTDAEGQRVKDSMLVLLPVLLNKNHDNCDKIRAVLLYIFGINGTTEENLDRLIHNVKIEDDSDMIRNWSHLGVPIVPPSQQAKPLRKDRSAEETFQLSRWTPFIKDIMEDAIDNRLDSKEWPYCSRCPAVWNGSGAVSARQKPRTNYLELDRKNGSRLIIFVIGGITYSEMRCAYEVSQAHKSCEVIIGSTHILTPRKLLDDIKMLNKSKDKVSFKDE", "assay": "pull-down; HL-Munc18c (20 μg, 1.4 μM) immobilised on TALON Co2+ beads; de-tagged Sx4 proteins (50 μg) added for 4 h (legend: 6 h), washed; binding buffer with 0.1% Triton X-100; SDS-PAGE, Coomassie"}, "HMunc18c": {"target": "T2, HMunc18c (mouse, UniProt Q60770 1-592)", "T2 construct": "Munc18c (Munc18-3), mouse; also called Munc18c with an N-terminal His6-tag; source: E. coli, purified as described previously [39]; not shown: His6, N-terminal, kept", "T2 sequence (looked up)": "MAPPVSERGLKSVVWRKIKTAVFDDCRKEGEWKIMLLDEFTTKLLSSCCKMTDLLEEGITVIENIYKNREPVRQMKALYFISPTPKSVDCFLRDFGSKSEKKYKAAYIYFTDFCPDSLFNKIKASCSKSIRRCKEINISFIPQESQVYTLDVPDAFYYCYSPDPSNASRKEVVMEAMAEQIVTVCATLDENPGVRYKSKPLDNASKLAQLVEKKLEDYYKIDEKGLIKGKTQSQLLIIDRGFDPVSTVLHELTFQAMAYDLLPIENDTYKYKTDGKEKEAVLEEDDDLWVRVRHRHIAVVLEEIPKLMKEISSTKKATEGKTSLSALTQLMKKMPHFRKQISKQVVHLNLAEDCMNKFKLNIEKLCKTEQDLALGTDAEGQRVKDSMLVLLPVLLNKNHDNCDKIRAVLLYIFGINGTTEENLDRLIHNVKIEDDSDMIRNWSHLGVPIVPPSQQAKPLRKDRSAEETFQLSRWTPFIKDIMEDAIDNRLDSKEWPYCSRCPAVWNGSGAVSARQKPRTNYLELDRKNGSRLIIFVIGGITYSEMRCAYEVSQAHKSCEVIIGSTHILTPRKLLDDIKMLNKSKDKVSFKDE", "assay": "fluorescence polarisation; fluorescence anisotropy kinetics, both in solution: Alexa488-labeled Sx4 (50 nM) with HMunc18c at 100–2500 nM; 25°C; 25 mM HEPES pH 8.0, 200 mM NaCl, 1 mM TCEP, 2% glycerol; global 1:1 fit (Dynafit 4.0)"}, "Munc18c (de-tagged)": {"target": "T3, Munc18c (de-tagged) (mouse, UniProt Q60770 1-592)", "T3 construct": "Munc18c (Munc18-3), mouse; also called detagged Munc18c; HTMunc18c after TEV cleavage; source: E. coli, purified (IMAC, TEV cleavage, reverse IMAC, SEC); not shown: His6, N-terminal, cleaved", "T3 sequence (looked up)": "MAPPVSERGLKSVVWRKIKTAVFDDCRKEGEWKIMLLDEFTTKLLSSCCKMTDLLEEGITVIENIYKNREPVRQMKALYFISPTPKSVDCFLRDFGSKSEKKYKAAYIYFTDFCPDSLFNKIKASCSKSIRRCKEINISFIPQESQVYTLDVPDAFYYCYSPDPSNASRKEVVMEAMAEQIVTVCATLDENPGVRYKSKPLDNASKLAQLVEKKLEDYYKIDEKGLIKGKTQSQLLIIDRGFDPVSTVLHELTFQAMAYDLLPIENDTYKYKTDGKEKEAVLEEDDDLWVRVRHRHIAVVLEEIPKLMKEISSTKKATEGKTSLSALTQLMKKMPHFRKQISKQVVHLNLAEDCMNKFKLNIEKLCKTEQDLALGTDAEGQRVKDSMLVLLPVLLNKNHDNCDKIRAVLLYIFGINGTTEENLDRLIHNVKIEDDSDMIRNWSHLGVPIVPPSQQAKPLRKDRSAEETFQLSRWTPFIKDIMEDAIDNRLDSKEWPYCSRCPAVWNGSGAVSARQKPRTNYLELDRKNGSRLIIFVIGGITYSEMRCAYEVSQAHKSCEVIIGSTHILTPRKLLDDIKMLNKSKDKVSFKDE", "assay": "BLI; C-terminally His-tagged Sx4 constructs loaded on Ni-NTA biosensors; de-tagged Munc18c 10/25–400 nM in solution; 25 mM Tris-Cl pH 7.5, 150 mM NaCl, 10 mM imidazole, 0.1% TX-100, 10% glycerol, 2 mM βME; BLItz; 1:1 fit"}}, "data": [{"binder": "Sx4_(1-298)-TMD (de-tagged, in detergent micelles) (natural protein, mouse, UniProt P70452 1-298, looked up, Syntaxin4 (Sx4) with its C-terminal transmembrane domain, mouse, amino acids 1-298, synthetic gene (GenScript); Mouse, whereas the soluble Sx4 constructs are rat; also called full-length Sx4; HT-Sx4-TMD after TEV cleavage; source: E. coli Lemo21 (DE3), purified in DDM (TALON Co2+ IMAC, TEV cleavage, reverse IMAC); not shown: His6, N-terminal, cleaved) MRDRTHELRQGDNISDDEDEVRVALVVHSGAARLGSPDDEFFQKVQTIRQTMAKLESKVRELEKQQVTILATPLPEESMKQGLQNLREEIKQLGREVRAQLKAIEPQKEEADENYNSVNTRMKKTQHGVLSQQFVELINKCNSMQSEYREKNVERIRRQLKITNAGMVSDEELEQMLDSGQSEVFVSNILKDTQVTRQALNEISARHSEIQQLERSIRELHEIFTFLATEVEMQGEMINRIEKNILSSADYVERGQEHVKIALENQKKARKKKVMIAICVSVTVLILAVIIGITITVG", "values": [{"measurement": "binding result", "setting": "HL-Munc18c", "value": "binds"}]}, {"binder": "Alexa488-labeled Sx4_(1-275)-His (native C141) (domain or fragment, rat, UniProt Q08850 1-275, looked up, Alexa Fluor 488 C5 maleimide on cysteine (native C141 rather than C141S), Degree of labeling greater than 90%; not shown: His6, C-terminal, kept) MRDRTHELRQGDNISDDEDEVRVALVVHSGAARLSSPDDEFFQKVQTIRQTMAKLESKVRELEKQQVTILATPLPEESMKQGLQNLREEIKQLGREVRAQLKAIEPQKEEADENYNSVNTRMKKTQHGVLSQQFVELINKCNSMQSEYREKNVERIRRQLKITNAGMVSDEELEQMLDSGQSEVFVSNILKDTQVTRQALNEISARHSEIQQLERSIRELHEIFTFLATEVEMQGEMINRIEKNILSSADYVERGQEHVKIALENQKKARKKKVM", "values": [{"measurement": "Kd", "setting": "HMunc18c", "value": 502, "unit": "nM"}, {"measurement": "koff", "setting": "HMunc18c", "value": 0.000653, "unit": "s⁻¹"}, {"measurement": "kon", "setting": "HMunc18c", "value": 1300, "unit": "M⁻¹ s⁻¹"}]}, {"binder": "Sx4_(1-275)-His (domain or fragment, rat, UniProt Q08850 1-275, looked up, also called Syntaxin4 soluble cytoplasmic domain with C-terminal His6; source: E. coli, purified as described previously [17, 28]; not shown: His6, C-terminal, kept) MRDRTHELRQGDNISDDEDEVRVALVVHSGAARLSSPDDEFFQKVQTIRQTMAKLESKVRELEKQQVTILATPLPEESMKQGLQNLREEIKQLGREVRAQLKAIEPQKEEADENYNSVNTRMKKTQHGVLSQQFVELINKSNSMQSEYREKNVERIRRQLKITNAGMVSDEELEQMLDSGQSEVFVSNILKDTQVTRQALNEISARHSEIQQLERSIRELHEIFTFLATEVEMQGEMINRIEKNILSSADYVERGQEHVKIALENQKKARKKKVM", "values": [{"measurement": "Kd", "setting": "Munc18c (de-tagged)", "value": 21, "unit": "nM"}, {"measurement": "koff", "setting": "Munc18c (de-tagged)", "value": 0.0086, "unit": "s⁻¹"}, {"measurement": "kon", "setting": "Munc18c (de-tagged)", "value": 530000, "unit": "M⁻¹ s⁻¹"}]}]}
